{"source": "a protein production outcome set (Wang et al. 2014)"}
{"test": "label from the status in PepcDB records"}
{"sequence": "MSLSVEFNKQQVRPRSEISPQDCWDITPLYLNRKAWKADLDSFGLKTDGSPTWPALQATQYQLDNSESLLSLLTTLFSIERKLNKLYVYAHLTHDQDITNQEGIADLKSITHLHTLFAEETSWVQPALTSLSESLIAQHLSAPCLAPYRFYLEKIFRLSIHTGTPGEEKILASAFTPLEVASKAFSSLSDSEIPFGQATDSEGNSHPLSHALASLYMQSTDRELRKTSYLAQCERYHSYRHTFANLLNGKIQAHVFYAKNKRYNSCLQAALYHNNIPTTVYTNLIDIVKKNSSLITKYFSIKQRCLNLKDFHFYDVYAPLSQSKEKKYTFQEAVDLIYTSLSPLGTEYIDTLKQGLTTQGWVDKYENLNKRSGAYSSGCYDSHPYVLLNYTGTLYDVSVIAHEGGHSMHSYFSRKHQPFHDAQYPIFLAEIASTLNEMLLMDSMLKESDSKEEKITILTRCLDTIFSTLFRQVLFASFEYDIHHAAEHGVPLTEEYLSSTYKNLQNEFYGEIITFDVLSNIEWARIPHFYYNFYVYQYATGIIAALCFLEKILNNEDNALNSYLNFLKSGGSDFPLEILKKSGLDMGTVEPIQKAFCFIEKKIQELSSLIEGHHHHHH", "protein production": "not failed"}
{"sequence": "MSLSYLTEEKLTIVGAAGMIGSNMAQTAAMMRLTPNLCLYDPFAVGLEGVAEEIRHCGFEGLNLTFTSDIKEALTDAKYIVSSGGAPRKEGMTREDLLKGNAEIAAQLGKDIKSYCPDCKHVIIIFNPADITGLVTLIYSGLKPSQVTTLAGLDSTRLQSELAKHFGIKQSLVTNTRTYGGHGEQMAVFASTAKVNGTPLTDLIGTDKLTNEQWAELKQRVVKGGANIIKLRGRSSFQSPSYVSIEMIRAAMGGEAFRWPAGCYVNVPGFEHIMMAMETTITKDGVKHSDINQLGNEAERAALKESYSHLAKLRDEVIAMGIIPAIADWKTVNPNEGHHHHHH", "protein production": "not failed"}
{"sequence": "MSLTAQIRLAEPADLNDDTLRARAVAAARGDQRFDVLITGGTLVDVVTGELRPADIGIVGALIASVHEPASRRDAAQVIDAGGAYVSPGLIDTHMHIESSMITPAAYAAAVVARGVTTIVWDPHEFGNVHGVDGVRWAAKAIENLPLRAILLAPSCVPSAPGLERGGADFDAAILADLLSWPEIGGIAEIMNMRGVIERDPRMSGIVQAGLAAEKLVCGHARGLKNADLNAFMAAGVSSDHELVSGEDLMAKLRAGLTIELRGSHDHLLPEFVAALNTLGHLPQTVTLCTDDVFPDDLLQGGGLDDVVRRLVRYGLKPEWALRAATLNAAQRLGRSDLGLIAAGRRADIVVFEDLNGFSARHVLASGRAVAEGGRMLVDIPTCDTTVLKGSMKLPLRMANDFLVKSQGAKVRLATIDRPRFTQWGETEADVKDGFVVPPEGATMISVTHRHGMAEPTTKTGFLTGWGRWNGAFATTVSHDSHNLTVFGGNAGDMALAANAVIGTGGGMAVASEGKVTAILPLPLSGLVSDAPLEEVARAFEDLREAVGKVVEWQPPYLVFKACFGATLACNIGPHQTDMGIADVLTGKVMESPVIEVLGEGHHHHHH", "protein production": "not failed"}
{"sequence": "MSLTEEFVNKEDALKNYNAKEFRTPDGYTSDMILTTVKELNGKPTLHILLIKRSLTNAEGKPNMEGGKWAVPGGFVDENESAEQAAERELEEETSLTDIPLIPFGVFDKPGRDPRGWIISRAFYAIVPPEALEKRAAGDDAAEIGLFPMTEALELPLAFDHLDMLKKAFSAITEEFLLTEGHHHHHH", "protein production": "not failed"}
{"sequence": "MSLTESARIDGVSLYEIVIPMKIPFQISSGTCYTRRSLVVEIREGDLFGYGESAPFEEPFYLGETLETTKVILKNHLLPMILGKEPLSIEEFNHLIKNGIRGNHFARCGVENAYWDLIAKKNKISLKAMIEKKMKNLGVKQEYLASNNYIESGAALGIPEDGRIETLIHQVEESLQEGYRRIKIKIKPGWDVEPLQETRRAVGDHFPLWTDANSSFELDQWETFKAMDAAKCLFHEQPLHYEALLDLKELGERIETPICLDESLISSRVAEFVAKLGISNIWNIKIQRVGGLLEAIKIYKIATDNGIKLWGGTMPESGLGARFLISLASFRGFVFPADVAASEKWYGKGNDLVENTMTDGKIYVPDEPGASFDMTLSHLEALGKKIWESQRGEGHHHHHH", "protein production": "not failed"}
